Assay results reported in article PMC10786891, “Massively parallel profiling of RNA-targeting CRISPR-Cas13d”.
Substitutions are numbered along the chain they refer to. Names may count otherwise.

T1: EsCas13d, nuclease-dead (Eubacterium siraeum, UniProt B0MS50, R295A;H300A;R849A;H854A)
T1 sequence: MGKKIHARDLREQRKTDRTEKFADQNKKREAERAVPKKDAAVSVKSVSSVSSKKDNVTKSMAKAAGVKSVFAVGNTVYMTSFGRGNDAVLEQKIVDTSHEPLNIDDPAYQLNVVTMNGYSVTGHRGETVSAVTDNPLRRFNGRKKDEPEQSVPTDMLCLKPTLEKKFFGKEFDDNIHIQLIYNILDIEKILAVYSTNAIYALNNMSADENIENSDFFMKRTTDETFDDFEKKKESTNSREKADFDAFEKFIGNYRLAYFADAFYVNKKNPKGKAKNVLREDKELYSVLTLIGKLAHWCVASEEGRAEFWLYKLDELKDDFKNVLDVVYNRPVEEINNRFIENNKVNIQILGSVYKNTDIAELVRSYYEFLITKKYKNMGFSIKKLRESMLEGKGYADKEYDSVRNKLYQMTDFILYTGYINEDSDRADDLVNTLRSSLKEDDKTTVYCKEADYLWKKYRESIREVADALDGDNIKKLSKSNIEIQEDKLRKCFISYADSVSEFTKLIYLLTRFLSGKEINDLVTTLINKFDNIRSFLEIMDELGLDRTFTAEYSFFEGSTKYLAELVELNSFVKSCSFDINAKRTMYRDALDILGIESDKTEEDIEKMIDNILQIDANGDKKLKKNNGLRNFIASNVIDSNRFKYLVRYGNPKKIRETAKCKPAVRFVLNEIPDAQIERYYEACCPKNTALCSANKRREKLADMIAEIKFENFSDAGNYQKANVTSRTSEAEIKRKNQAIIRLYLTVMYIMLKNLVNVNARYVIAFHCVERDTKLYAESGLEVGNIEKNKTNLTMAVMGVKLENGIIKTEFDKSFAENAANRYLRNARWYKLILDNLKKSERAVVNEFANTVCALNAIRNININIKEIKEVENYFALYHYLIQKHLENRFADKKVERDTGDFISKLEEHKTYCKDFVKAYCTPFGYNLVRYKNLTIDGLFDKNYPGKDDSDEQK

B1: target 1 A9G,A14U (mixed)
RNA 1: CACCCGUGCAAAAAUGCAGGGGUCUAAAACUGAGCGGAUAACCUCUCUAUGG
RNA 2: GGGAAUGGAUCCACAUCUACGAAUUCGUACCAUAGAGUGGUUGUCCGCUCACCGAGAUCGGAAGAGCACACGU
B2: target 1 insA 3' of 22,insU 3' of 1 (mixed)
RNA 1: B1 RNA 1
RNA 2: GGGAAUGGAUCCACAUCUACGAAUUCGUACACAUAGAGAGGUUAUCCGCUCAUCCGAGAUCGGAAGAGCACACGU
B3: target 1 insA 3' of 12,insU 3' of 7 (mixed)
RNA 1: B1 RNA 1
RNA 2: GGGAAUGGAUCCACAUCUACGAAUUCGUACCAUAGAGAGGAUUAUCUCGCUCACCGAGAUCGGAAGAGCACACGU
B4: target 1 G5A,G17C (mixed)
RNA 1: B1 RNA 1
RNA 2: B1 RNA 2 with G35C, U38A, G43A, G47A
B5: target 1 insC 3' of 18,insU 3' of 18 (mixed)
RNA 1: B1 RNA 1
RNA 2: B3 RNA 2 with G35C, A36U, G40A, A41G, U42G, A44U, U45A, C46U, U47C
B6: target 1 insA 3' of 15,insC 3' of 10 (mixed)
RNA 1: B1 RNA 1
RNA 2: B3 RNA 2 with G39A, A41G, A44C, U45A, C46U, U47C
B7: target 1 C4A,U19A (mixed)
RNA 1: B1 RNA 1
RNA 2: B1 RNA 2 with U33A, U38A, G43A, C48A
B8: target 1 A14G,U19A (mixed)
RNA 1: B1 RNA 1
RNA 2: B1 RNA 2 with U33A, U38G, G43A
B9: target 1 insC 3' of 19,insU 3' of 12 (mixed)
RNA 1: B1 RNA 1
RNA 2: GGGAAUGGAUCCACAUCUACGAAUUCGUACCAUCAGAGAGGUUUAUCCGCUCACCGAGAUCGGAAGAGCACACGU
B10: target 1 A1G,C22U (mixed)
RNA 1: B1 RNA 1
RNA 2: B1 RNA 2 with C30U, U38A, G43A, A51G
B11: target 1 C6A,U8A (mixed)
RNA 1: B1 RNA 1
RNA 2: B1 RNA 2 with U38A, G43A, U44A, C46A
B12: target 1 insC 3' of 14,insA 3' of 12 (mixed)
RNA 1: B1 RNA 1
RNA 2: B3 RNA 2 with G39C, A41G, U42A, A44U, U45A, C46U, U47C
B13: target 1 C4U,G5C (mixed)
RNA 1: B1 RNA 1
RNA 2: B1 RNA 2 with U38A, G43A, G47C, C48U
B14: target 1 insG 3' of 16,insU 3' of 2 (mixed)
RNA 1: B1 RNA 1
RNA 2: B2 RNA 2 with A31C, C32A, A33U, U34A, A35G, G36A, A37G, A52U, U53A
B15: target 1 insA 3' of 11,insA 3' of 2 (mixed)
RNA 1: B1 RNA 1
RNA 2: B3 RNA 2 with A41U, U42A, U47C, C48G, G49C, C50U, U51C, C52A
B16: target 1 U8G,U10C (mixed)
RNA 1: B1 RNA 1
RNA 2: B1 RNA 2 with U38A, U42C, G43A, U44G
B17: target 1 insC 3' of 13,insA 3' of 4 (mixed)
RNA 1: B1 RNA 1
RNA 2: B3 RNA 2 with G40C, A41G, U47C, C48G, G49C, C50A
B18: target 1 C4G,G15U (mixed)
RNA 1: B1 RNA 1
RNA 2: B1 RNA 2 with G37U, U38A, G43A, C48G
B19: target 1 insA 3' of 4,insG 3' of 2 (mixed)
RNA 1: B1 RNA 1
RNA 2: B3 RNA 2 with A41U, U43A, A44U, U45C, U47G, G49A, C50U, U51C, C52G
B20: target 1 insA 3' of 15,insU 3' of 6 (mixed)
RNA 1: B1 RNA 1
RNA 2: B3 RNA 2 with G39A, A41G, U47C, C48U
B21: target 1 insC 3' of 19,insG 3' of 3 (mixed)
RNA 1: B1 RNA 1
RNA 2: B2 RNA 2 with A31C, C32A, A33U, U34C, C51G, A52C, U53A
B22: target 1 insU 3' of 21,insC 3' of 18 (mixed)
RNA 1: B1 RNA 1
RNA 2: B9 RNA 2 with A32U, U33A, C34U, G36C, A37G, G38A, A39G, G40A, U42G
B23: target 1 C7A,U10G (mixed)
RNA 1: B1 RNA 1
RNA 2: B1 RNA 2 with U38A, U42G, G43A, C45A
B24: target 1 insC 3' of 13,insG 3' of 11 (mixed)
RNA 1: B1 RNA 1
RNA 2: B3 RNA 2 with G40C, A41G, U43G, A44U, U45A, C46U, U47C
B25: target 1 insA 3' of 17,insA 3' of 15 (mixed)
RNA 1: B1 RNA 1
RNA 2: B9 RNA 2 with C34A, A35G, G36A, G40A, U42G
B26: target 1 insA 3' of 13,insU 3' of 2 (mixed)
RNA 1: B1 RNA 1
RNA 2: B3 RNA 2 with G40A, A41G, U47C, C48G, G49C, C50U, U51C, C52U
B27: target 1 U3C,G12U (mixed)
RNA 1: B1 RNA 1
RNA 2: B1 RNA 2 with U38A, G40U, G43A, U49C
B28: target 1 U8C,A14C (mixed)
RNA 1: B1 RNA 1
RNA 2: B1 RNA 2 with U38C, G43A, U44C
B29: target 1 insC 3' of 18,insA 3' of 15 (mixed)
RNA 1: B1 RNA 1
RNA 2: B9 RNA 2 with C34A, A35C, G40A, U42G
B30: target 1 insA 3' of 21,insG 3' of 4 (mixed)
RNA 1: B1 RNA 1
RNA 2: B2 RNA 2 with A31C, C32A, U50G, C51U, A52C, U53A
B31: target 1 insA 3' of 19,insA 3' of 3 (mixed)
RNA 1: B1 RNA 1
RNA 2: B2 RNA 2 with A31C, C32A, A33U, U34A, C51A, A52C, U53A
B32: target 1 insG 3' of 19,insC 3' of 13 (mixed)
RNA 1: B1 RNA 1
RNA 2: B9 RNA 2 with C34G, G41C, U42G
B33: target 1 U19G,C21U (mixed)
RNA 1: B1 RNA 1
RNA 2: B1 RNA 2 with C31U, U33G, U38A, G43A

These binders were tested against T1, EsCas13d, nuclease-dead (assay: crRNA (strand 1, pre-loaded); Mg2+; 40 mM Tris-HCl pH 7.5, 150 mM NaCl, 6 mM MgCl2, 1 mM DTT, 0.1% Tween-20, 0.2 mg/ml BSA; 25 C; 10 min per concentration, then washed). Details: tags: His6-TwinStrep-SUMO cleaved; N-terminal SNAP kept (SNAP-Surface 488); label: 3' end held by stalled T7 RNA polymerase.
Binder B1 has a Kd of 65 ± 18 nM. For B2, the Kd was 15 ± 0.9 nM. B3 gave a Kd of 42 ± 5 nM. B4 gave a Kd of 80 ± 21 nM. For B5, the Kd was 57 ± 6 nM. Work on B6 yielded a Kd of ~80 nM. B7 was tested, and the Kd was 68 ± 15 nM. B8 gave a Kd of 91 ± 17 nM. With B9 the Kd was 30.6 ± 3.2 nM. In the case of B10, the Kd is reported as 13.9 ± 2.5 nM. In the case of B11, the Kd is reported as 14.4 ± 0.4 nM. B12 showed a Kd of 70 ± 14 nM. Binder B13 has a Kd of 39 ± 4 nM. With B14 the Kd was 15.1 ± 1.3 nM. B15 showed a Kd of 16.1 ± 1.2 nM. B16 was tested, and the Kd was 19.8 ± 1.2 nM. B17 was tested, and the Kd was 4.86 ± 0.17 nM. In the case of B18, the Kd is reported as 22 ± 8 nM. B19 gave a Kd of 7.7 ± 0.6 nM. B20 was tested, and the Kd was 11.3 ± 0.5 nM. With B21 the Kd was 26 ± 1.4 nM. B22 showed a Kd of 52 ± 6 nM. B23 showed a Kd of 9.7 ± 0.5 nM. B24 gave a Kd of 28.5 ± 3.4 nM. B25 gave a Kd of 8 ± 0.8 nM. B26 was tested, and the Kd was 4.3 ± 0.4 nM. For B27, the Kd was 19.4 ± 1.4 nM. With B28 the Kd was 81 ± 14 nM. B29 gave a Kd of 25.1 ± 1.2 nM. Work on B30 yielded a Kd of 14.3 ± 1.1 nM. With B31 the Kd was 16.7 ± 1 nM. B32 showed a Kd of 68 ± 12 nM. In the case of B33, the Kd is reported as 11.1 ± 1.3 nM.
